This experiment addresses MHC class II (HLA-DR1) on human LG-2 cells (human (endogenous in LG-2)). Nature of the experiment: radioligand binding.

In turn, SMEZ-2, recombinant (natural protein) registered a KD, high affinity site of 25 nM and a KD, low affinity site of 1000 nM.
